Experimental findings from the supplement of paper PMC10567573 are described below.

± gives the standard deviation.

This series can be described thus: protein stability index of a GFP-peptide fusion (GPS, HEK-293T) (PSI 1-6); higher = more stable. The following applies: c terminus: a fixed tail appended.
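Further: 24-mer peptide tiles fused after GFP, lentivirally expressed, FACS-sorted into six equal bins by GFP/DsRed ratio, decoded by Illumina sequencing, PSI is the read-weighted mean bin number.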

PAPAPLVPQDPDLEEEEEEEDLVL [ZBTB22] returned a protein stability index (treatment: DMSO) of 5.59 ± 0.33 and a protein stability index (treatment: MLN4924 1 uM, 8 h) of 5.69 ± 0.2.

PAPERTMAGLSKEPNTLRAPRVRT [VENTX] yielded a protein stability index (treatment: DMSO) of 4.86 ± 0.29 and a protein stability index (treatment: MLN4924 1 uM, 8 h) of 4.85 ± 0.32.

Turning to PAPTATVPAPQPPVTKPLFPSAGQ [ZNF207], the protein stability index reads like this: (treatment: DMSO) 4.82 ± 0.39; (treatment: MLN4924 1 uM, 8 h) 4.8 ± 0.18.

Turning to PASYTAPIMSGQGLAGFFASVAMI [SLC29A1], the protein stability index came to 2.59 ± 0.58 (treatment: DMSO) and 2.44 ± 0.48 (treatment: MLN4924 1 uM, 8 h).

In the case of PCAGLNCQALDANLDANLAFASFT [TLE6], the protein stability index is, setting by setting: (treatment: DMSO) 2.98 ± 0.33; (treatment: MLN4924 1 uM, 8 h) 2.99 ± 0.28.

For the sequence PDDKLTLFCEVSVVQDSVNISGHT [SPOPL], the protein stability index by setting is: (treatment: DMSO) 2.47 ± 0.52; (treatment: MLN4924 1 uM, 8 h) 2.81 ± 0.49.

In the case of PDTQENRRMFSSLFQFSNCSQGQQ [CCDC3], the protein stability index came to 3.67 ± 0.19 (treatment: DMSO) and 3.51 ± 0.17 (treatment: MLN4924 1 uM, 8 h).

As to PECGEIFAHSSNLLRHQRIHTGER [ZNF263], the protein stability index is, setting by setting: (treatment: DMSO) 3.88 ± 0.24; (treatment: MLN4924 1 uM, 8 h) 3.91 ± 0.073.

In the case of PEGARRGLGVLRALGSRGWEPFDW [FANCE], the protein stability index came to 3.05 ± 0.34 (treatment: DMSO) and 2.98 ± 0.42 (treatment: MLN4924 1 uM, 8 h).

PEIEKADDHLQQPLQNQKILKRTG [ZNF649]: the protein stability index turned out to be 5.3 ± 0.29 (treatment: DMSO) and 5.5 ± 0.24 (treatment: MLN4924 1 uM, 8 h).

For the sequence PEQSLKKTKTSEYPIIFVYYLRKG [SPANXN3], the protein stability index by setting is: (treatment: DMSO) 2.75 ± 1.8; (treatment: MLN4924 1 uM, 8 h) 2.59 ± 0.37.

As to PERLHAIKEQLIQEGLLDRCVSFQ [HDAC6], the protein stability index is 2.88 ± 0.11 (treatment: DMSO) and 3.18 ± 0.12 (treatment: MLN4924 1 uM, 8 h).

Take PESVEASPVVVEKSNSYPHQLYTS [KMT2E]: the protein stability index is, setting by setting: (treatment: DMSO) 4.34 ± 0.32; (treatment: MLN4924 1 uM, 8 h) 4.44 ± 0.26.

Consider PEVLDRESRDRPSCAPSASIPKLK [PWWP2B], for which the protein stability index runs as follows: (treatment: DMSO) 5.04 ± 0.21; (treatment: MLN4924 1 uM, 8 h) 5.25 ± 0.15.

Regarding PGEEKFENLEGVPSVCSENIHPQV [ZNF263], the protein stability index runs as follows: (treatment: DMSO) 4.96 ± 0.23; (treatment: MLN4924 1 uM, 8 h) 4.96 ± 0.38.

On to PGFDRGQFHKQIAVMRGQILNLTQ [PI4K2A], for which the protein stability index reads like this: (treatment: DMSO) 2.56 ± 0.21; (treatment: MLN4924 1 uM, 8 h) 2.56 ± 0.28.

For the sequence PGFGCKAVRCASGRCTVRDFIHRH [SDE2], the protein stability index by setting is: (treatment: DMSO) 2.08 ± 0.43; (treatment: MLN4924 1 uM, 8 h) 2.14 ± 0.46.

PGKDYDADRQCQLTFGPDSRHCPQ [ADAMTS4]: the protein stability index reads like this: (treatment: DMSO) 4.68 ± 0.26; (treatment: MLN4924 1 uM, 8 h) 4.67 ± 0.24.

In turn, PGRREGCDICAGKAGCPIVEEPLG [RPS21] showed a protein stability index (treatment: DMSO) of 4.09 ± 0.33 and a protein stability index (treatment: MLN4924 1 uM, 8 h) of 4.25 ± 0.072.

With PGSLLCTVAASDPDTGDNARLTYS [PCDHGC5], the protein stability index is, setting by setting: (treatment: DMSO) 4.12 ± 0.29; (treatment: MLN4924 1 uM, 8 h) 4 ± 0.14.

The sequence PGTLLKTSPSPERSLLLKYARTPT [TRIM14] came in with a protein stability index (treatment: DMSO) of 3.27 ± 0.22 and a protein stability index (treatment: MLN4924 1 uM, 8 h) of 3.15 ± 0.12.

In the case of PIEVVTEGLLNTYQELLGLSFEQM [NLN], the protein stability index is, setting by setting: (treatment: DMSO) 2.13 ± 0.37; (treatment: MLN4924 1 uM, 8 h) 2.29 ± 0.38.

PKDIAKLVPKTHLMSESEWRNLGV [CKS1B]: the protein stability index runs as follows: (treatment: DMSO) 2.8 ± 0.32; (treatment: MLN4924 1 uM, 8 h) 2.85 ± 0.34.

Sequence PKPSGLEPGPAAYGLKPLTPNSKY [KCTD13] returned a protein stability index (treatment: DMSO) of 4.42 ± 0.23 and a protein stability index (treatment: MLN4924 1 uM, 8 h) of 4.22 ± 0.26.

Regarding PLFSEDVVLKLFLSFSGSDVQNKL [SNX8], the protein stability index runs as follows: (treatment: DMSO) 2.1 ± 0.45; (treatment: MLN4924 1 uM, 8 h) 2.31 ± 0.39.

As for PLLLKEILKHTPKEHPDVQLLEDA [NET1], the protein stability index runs as follows: (treatment: DMSO) 3.82 ± 0.41; (treatment: MLN4924 1 uM, 8 h) 4.06 ± 0.21.

With PLMQGPRTRPRKPIRCGEVLFAVG [KLHL20], the protein stability index is, setting by setting: (treatment: DMSO) 2.23 ± 0.33; (treatment: MLN4924 1 uM, 8 h) 1.92 ± 0.5.

Regarding PLMVASAQSGERECHIVVLTDDDV [BTBD10], the protein stability index came to 3.71 ± 0.32 (treatment: DMSO) and 3.92 ± 0.15 (treatment: MLN4924 1 uM, 8 h).

In the case of PLPFPGPFPAGPLAVAGGPRKTAA [ESRRA], the protein stability index (treatment: DMSO) stood at 4.43 ± 0.17 and the protein stability index (treatment: MLN4924 1 uM, 8 h) worked out at 4.25 ± 0.14.

Sequence PLPHPGAAPWPMAFPYQYPPPPHP [DVL3] showed a protein stability index (treatment: DMSO) of 3.15 ± 0.28 and a protein stability index (treatment: MLN4924 1 uM, 8 h) of 3.41 ± 0.13.

As to PLPQIPNLPFWVKEKANSLKNEIQ [SPATS1], the protein stability index is, setting by setting: (treatment: DMSO) 2.79 ± 0.45; (treatment: MLN4924 1 uM, 8 h) 3.4 ± 0.3.

Consider PLQDFPNSISSDKEATVPCTEILT [MIA2], for which the protein stability index came out at 4.55 ± 0.24 (treatment: DMSO) and 4.54 ± 0.24 (treatment: MLN4924 1 uM, 8 h).

Consider PNAQYWSQFHSVRPQGPQLRQQQH [DNAJC4], for which the protein stability index (treatment: DMSO) stood at 3.62 ± 0.14 and the protein stability index (treatment: MLN4924 1 uM, 8 h) stood at 3.76 ± 0.29.

PNCFRKDPDINMHPFFFALGKILS [FADS1]: the protein stability index turned out to be 2.1 ± 0.51 (treatment: DMSO) and 2.33 ± 0.5 (treatment: MLN4924 1 uM, 8 h).

PPELTASRQSFRMAMGNPSEFFVD [DVL3]: the protein stability index reads like this: (treatment: DMSO) 4.17 ± 0.21; (treatment: MLN4924 1 uM, 8 h) 3.83 ± 0.21.

Regarding PPGPKGDQGDEGKEGRPGIPGLPG [SCARA5], the protein stability index reads like this: (treatment: DMSO) 5.69 ± 0.15; (treatment: MLN4924 1 uM, 8 h) 5.36 ± 0.41.
